Source: article PMC5437307 (2017)
Values joined by “and” are separate entries in the source; they are usually repeats but may differ in a detail not shown here. Equal values may be shown once. Each block holds one molecule with its values, some of them ahead of it.

Key:
[1] = biological target: IL-2Rβγc (Homo sapiens) (UniProt P14784); conditions: cited from earlier work
[2] = biological target: T1, F42A mutant (IL-2-Fc format) (human, UniProt P60568 21-153, F42A); test: SPR
[3] = biological target: T1, F42A mutant (IL-2-Fc format); test: SPR; remark: listed apart in the source

IL-2Rβγc (Homo sapiens), sequence (P14784 27-240, chain 1 of 2): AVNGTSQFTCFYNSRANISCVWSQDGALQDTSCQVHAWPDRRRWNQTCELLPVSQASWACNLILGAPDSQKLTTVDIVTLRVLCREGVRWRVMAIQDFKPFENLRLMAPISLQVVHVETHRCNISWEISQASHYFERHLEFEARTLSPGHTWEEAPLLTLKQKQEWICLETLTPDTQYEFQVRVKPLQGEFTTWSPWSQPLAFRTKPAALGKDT
IL-2Rβγc (Homo sapiens), sequence (P31785 23-262, chain 2 of 2, further chain): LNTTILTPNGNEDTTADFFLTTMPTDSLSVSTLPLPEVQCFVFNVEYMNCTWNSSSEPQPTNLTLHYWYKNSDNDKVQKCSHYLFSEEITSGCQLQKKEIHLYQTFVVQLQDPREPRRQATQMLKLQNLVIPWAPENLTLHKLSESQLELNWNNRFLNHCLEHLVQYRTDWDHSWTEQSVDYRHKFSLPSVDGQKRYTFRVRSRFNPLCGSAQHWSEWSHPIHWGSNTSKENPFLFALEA

Molecule: IL-2 (from UniProt P60568)
- Kd [1]: 1 nM

- koff [2]: 0.325 s⁻¹
- Kd [3]: 1080 nM and 1100 nM
B1: hCD25-His (receptor)
chain: ELCDDDPPEIPHATFKAMAYKEGTMLNCECKRGFRRIKSGSLYMLCTGNSSHSSWDNQCQCTSSATRNTTKQVTPQPEEQKERKTTEMQSPMQPVDQASLPGHCREPPPWENEATERIYHFVVGQMVYYQCVQGYRALHRGPAESVCKMTHGKTRWTQPQLICTGEMETSQFPGEEKPQASPEGRPESETSCLVTTTDFQIQTEMAATMETSIFTTEYQ
